For three substances, response results are on record in paper PMC5898713.

Test [1] has as its target PhyT (formerly PhyP), T25 fusion. Briefly: BACTH β-galactosidase assay. The following applies: Overnight cultures containing 0.5 mM IPTG and antibiotics for selection, 30°C; three biological replicates; parent: est. 3000; read off a plot.
In test [2] the target is NepR wild-type, T25 fusion. Briefly: BACTH β-galactosidase assay. The following applies: Overnight cultures containing 0.5 mM IPTG and antibiotics for selection, 30°C; three biological replicates; parent: est. 1500; read off a plot.

Turning to PhyR wild-type, T18 fusion D194A, the results for the response in test [1] and in test [2] were 1100 Miller units and 300 Miller units, respectively.

Take PhyR wild-type, T18 fusion D194A; E235A: the response in test [1] was 780 Miller units; in test [2] it was 6900 Miller units.

In the case of PhyR wild-type, T18 fusion E235A, the results for the response in test [1] and in test [2] were 3100 Miller units and 7100 Miller units, respectively.
